Experimental data from US20250269047A1 (MABWELL SHANGHAI BIOSCIENCE, published 2025).
Where a chain is given by its changes, count along the chain named.

T1: recombinant human B7-H3-his extracellular domain protein (UniProtKB-Q5ZPR3, 1 aa-461 aa) (human, UniProt Q5ZPR3 29-461)
T1 construct: range 1-461; The printed range 1-461 starts at residue 1 and so includes the signal peptide; also called Human B7-H3 ECD; recombinant human B7-H3-his protein; not shown: C-terminal his tag
T1 sequence (looked up): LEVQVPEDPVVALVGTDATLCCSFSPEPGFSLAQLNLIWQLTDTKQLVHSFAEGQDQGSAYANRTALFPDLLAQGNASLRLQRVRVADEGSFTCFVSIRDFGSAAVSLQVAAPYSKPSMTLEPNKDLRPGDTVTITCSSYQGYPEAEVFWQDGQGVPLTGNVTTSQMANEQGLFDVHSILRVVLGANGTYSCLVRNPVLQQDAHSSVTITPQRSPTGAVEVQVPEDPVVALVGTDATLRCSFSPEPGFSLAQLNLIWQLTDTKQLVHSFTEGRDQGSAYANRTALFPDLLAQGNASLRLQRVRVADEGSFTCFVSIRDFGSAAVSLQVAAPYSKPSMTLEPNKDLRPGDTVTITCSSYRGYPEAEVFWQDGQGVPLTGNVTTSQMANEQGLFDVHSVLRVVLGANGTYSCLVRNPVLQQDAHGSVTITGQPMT

B1: hz9B11-3 (antibody, human IgG1, kappa)
heavy: not shown
light: EIVLTQSPDFQSVTPKEKVTITCRASQSINNNLHWYQQKPDQSPKLLIKYASQSISGVPSRFSGSGSGTDFTLTINSLEAEDAATYYCQQSHSWPYTFGQGTKLEIKRTVAAPSVFIFPPSDEQLKSGTASVVCLLNNFYPREAKVQWKVDNALQSGNSQESVTEQDSKDSTYSLSSTLTLSKADYEKHKVYACEVTHQGLSSPVTKSFNRGEC
notes: hz9B11_VH1 + hz9B11_VL2; human IgG1, kappa
B2: hz9B11-4 (antibody, human IgG1, kappa)
heavy: not shown
light: B1 light
notes: hz9B11_VH2 + hz9B11_VL2; human IgG1, kappa
B3: hz10B4-8 (antibody, human IgG1, kappa)
heavy: not shown
light: DIQLTQSPSSLSASVGDRVTMTCSASSSVSYMHWYQQKPGKAPKLLIYDTSKLASGVPSRFSGSGSGTDFTLTISSLQPEDFATYYCQQWSSNPLTFGGGTKVEIKRTVAAPSVFIFPPSDEQLKSGTASVVCLLNNFYPREAKVQWKVDNALQSGNSQESVTEQDSKDSTYSLSSTLTLSKADYEKHKVYACEVTHQGLSSPVTKSFNRGEC
notes: hz10B4_VH4 + hz10B4_VL2; human IgG1, kappa
B4: hz10B4-11 (antibody, human IgG1, kappa, V domains shown)
VH: EVQLVQSGAEVKKPGASVKVSCKASGYTFTEYIMHWVRQAPGQGLEWMGGINPASGGTTYNQKFKGRVTMTRDTSISTAYMELSRLRSEDTAVYYCARKGKDYFDWYFDVWGQGTTVTVSS
VL: DIQLTQSPSSLSASVGDRVTMTCSASSSVSYMHWYQQKPGKAPKLLIYDTSKLASGVPSRFSGSGSGTDFTLTISSLQPEDFATYYCQQWSSQPLTFGGGTKVEIKR
notes: hz10B4_VH3 + hz10B4_VL5; human IgG1, kappa
B5: hz10B4-12 (antibody, human IgG1, kappa, V domains shown)
VH: B4 VH with A54N, S55Q
VL: B4 VL with Q93A
notes: hz10B4_VH4 + hz10B4_VL3; human IgG1, kappa
B6: hz10B4-2 (antibody, human IgG1, kappa)
heavy: not shown
light: B3 light with L4M
notes: hz10B4_VH2 + hz10B4_VL1; human IgG1, kappa
B7: hz10B4-3 (antibody, human IgG1, kappa)
heavy: not shown
light: B3 light with L4M
notes: hz10B4_VH3 + hz10B4_VL1; human IgG1, kappa
B8: hz10B4-13 (antibody, human IgG1, kappa, V domains shown)
VH: B4 VH with A54N, S55Q
VL: B4 VL with S92A, Q93S
notes: hz10B4_VH4 + hz10B4_VL4; human IgG1, kappa
B9: hz10B4-1 (antibody, human IgG1, kappa)
heavy: not shown
light: B3 light with L4M
notes: hz10B4_VH1 + hz10B4_VL1; human IgG1, kappa
B10: hz10B4-4 (antibody, human IgG1, kappa)
heavy: not shown
light: B3 light with L4M
notes: hz10B4_VH4 + hz10B4_VL1; human IgG1, kappa
B11: hz10B4-6 (antibody, human IgG1, kappa)
heavy: not shown
light: B3 light
notes: hz10B4_VH2 + hz10B4_VL2; human IgG1, kappa
B12: hz10B4-9 (antibody, human IgG1, kappa, V domains shown)
VH: B4 VH
VL: B4 VL with Q93A
notes: hz10B4_VH3 + hz10B4_VL3; human IgG1, kappa
B13: hz10B4-14 (antibody, human IgG1, kappa, V domains shown)
VH: B4 VH with A54N, S55Q
VL: B4 VL
notes: hz10B4_VH4 + hz10B4_VL5; human IgG1, kappa
B14: hz10B4-10 (antibody, human IgG1, kappa, V domains shown)
VH: B4 VH
VL: B4 VL with S92A, Q93S
notes: hz10B4_VH3 + hz10B4_VL4; human IgG1, kappa
B15: hz10B4-5 (antibody, human IgG1, kappa)
heavy: not shown
light: B3 light
notes: hz10B4_VH1 + hz10B4_VL2; human IgG1, kappa
B16: hz17A3-5 (antibody, human IgG1, kappa, V domains shown)
VH: EVQLVQSGAEVKKPGASVKVSCKASGYTFTDYALHWVRQAPGQGLEWMGLINTYSSNTNYNQKFKDRVTMTRDTSISTAYMELSRLRSEDTAVYYCARGITAVVGTRYYAMDYWGQGTLVTVSS
VL: EIVLTQSPGTLSLSPGERATLSCRASQSISNNLHWYQQKPGQAPRLLIKYTSQNISGIPDRFSGSGSGTDFTLTISRLEPEDFAVYYCQQSYSWPLTFGGGTKVEIKR
notes: hz17A3_VH3 + hz17A3_VL3; human IgG1, kappa
B17: hz17A3-15 (antibody, human IgG1, kappa, V domains shown)
VH: B16 VH with N52S
VL: B16 VL with N54S
notes: hz17A3_VH4 + hz17A3_VL6; human IgG1, kappa
B18: hz17A3-6 (antibody, human IgG1, kappa, V domains shown)
VH: B16 VH with N52S
VL: B16 VL
notes: hz17A3_VH4 + hz17A3_VL3; human IgG1, kappa
B19: hz17A3-19 (antibody, human IgG1, kappa, V domains shown)
VH: B16 VH with N57S
VL: B16 VL with N31S, N54S
notes: hz17A3_VH5 + hz17A3_VL7; human IgG1, kappa
B20: hz17A3-12 (antibody, human IgG1, kappa, V domains shown)
VH: B16 VH with N52S
VL: B16 VL with N31S
notes: hz17A3_VH4 + hz17A3_VL5; human IgG1, kappa
B21: hz17A3-17 (antibody, human IgG1, kappa, V domains shown)
VH: B16 VH
VL: B16 VL with N31S, N54S
notes: hz17A3_VH3 + hz17A3_VL7; human IgG1, kappa
B22: hz17A3-7 (antibody, human IgG1, kappa, V domains shown)
VH: B16 VH with N57S
VL: B16 VL
notes: hz17A3_VH5 + hz17A3_VL3; human IgG1, kappa
B23: hz17A3-11 (antibody, human IgG1, kappa, V domains shown)
VH: B16 VH
VL: B16 VL with N31S
notes: hz17A3_VH3 + hz17A3_VL5; human IgG1, kappa
B24: hz17A3-2 (antibody, human IgG1, kappa, V domains shown)
VH: B16 VH with E1Q, M48I, E89D
VL: B16 VL with K49Y
notes: hz17A3_VH2 + hz17A3_VL1; human IgG1, kappa
B25: hz17A3-10 (antibody, human IgG1, kappa, V domains shown)
VH: B16 VH with N57S
VL: B16 VL with K49Y, Y87F
notes: hz17A3_VH5 + hz17A3_VL4; human IgG1, kappa
B26: hz17A3-8 (antibody, human IgG1, kappa, V domains shown)
VH: B16 VH
VL: B16 VL with K49Y, Y87F
notes: hz17A3_VH3 + hz17A3_VL4; human IgG1, kappa
B27: hz17A3-16 (antibody, human IgG1, kappa, V domains shown)
VH: B16 VH with N57S
VL: B16 VL with N54S
notes: hz17A3_VH5 + hz17A3_VL6; human IgG1, kappa
B28: hz17A3-18 (antibody, human IgG1, kappa, V domains shown)
VH: B16 VH with N52S
VL: B16 VL with N31S, N54S
notes: hz17A3_VH4 + hz17A3_VL7; human IgG1, kappa
B29: hz17A3-9 (antibody, human IgG1, kappa, V domains shown)
VH: B16 VH with N52S
VL: B16 VL with K49Y, Y87F
notes: hz17A3_VH4 + hz17A3_VL4; human IgG1, kappa
B30: hz17A3-1 (antibody, human IgG1, kappa, V domains shown)
VH: B16 VH with E1Q, E89D
VL: B16 VL with K49Y
notes: hz17A3_VH1 + hz17A3_VL1; human IgG1, kappa
B31: hz17A3-13 (antibody, human IgG1, kappa, V domains shown)
VH: B16 VH with N57S
VL: B16 VL with N31S
notes: hz17A3_VH5 + hz17A3_VL5; human IgG1, kappa
B32: hz9B11-1 (antibody, human IgG1, kappa)
heavy: not shown
light: EIVLTQSPGTLSLSPGERATLSCRASQSINNNLHWYQQKPGQAPRLLIYYASQSISGIPDRFSGSGSGTDFTLTISRLEPEDFAVYYCQQSHSWPYTFGQGTKLEIKRTVAAPSVFIFPPSDEQLKSGTASVVCLLNNFYPREAKVQWKVDNALQSGNSQESVTEQDSKDSTYSLSSTLTLSKADYEKHKVYACEVTHQGLSSPVTKSFNRGEC
notes: hz9B11_VH1 + hz9B11_VL1; human IgG1, kappa
B33: hz9B11-8 (antibody, human IgG1, kappa)
heavy: not shown
light: B32 light with Y87F
notes: hz9B11_VH2 + hz9B11_VL4; human IgG1, kappa
B34: hz9B11-9 (antibody, human IgG1, kappa)
heavy: not shown
light: B32 light with Y49K, Y87F
notes: hz9B11_VH1 + hz9B11_VL5; human IgG1, kappa
B35: hz9B11-10 (antibody, human IgG1, kappa)
heavy: not shown
light: B32 light with Y49K, Y87F
notes: hz9B11_VH2 + hz9B11_VL5; human IgG1, kappa
B36: hz9B11-5 (antibody, human IgG1, kappa)
heavy: not shown
light: B32 light with Y49K
notes: hz9B11_VH1 + hz9B11_VL3; human IgG1, kappa
B37: hz9B11-2 (antibody, human IgG1, kappa)
heavy: not shown
light: B32 light
notes: hz9B11_VH2 + hz9B11_VL1; human IgG1, kappa
B38: hz9B11-7 (antibody, human IgG1, kappa)
heavy: not shown
light: B32 light with Y87F
notes: hz9B11_VH1 + hz9B11_VL4; human IgG1, kappa

These binders were tested against T1, recombinant human B7-H3-his … (assay: BLI (Octet QKe), antibody on AHC biosensor, B7-H3-his 60 nM in solution).
Protocol: According to the mutation designs, site-directed mutagenesis was performed in the plasmids expressing the humanized light chains and heavy chains respectively using StarMut gene Site-directed Mutagenesis Kit (Cat.: T111-01, GenStar). The mutated plasmids were transformed into E. coli cells for expansion, and plasmids expressing the humanized and mutated light and heavy chains based on the antibodies 9B11, 10B4, and 17A3 were obtained. […] 5-6 days after cell transfection, culture supernatants were purified through ProA affinity chromatography column to obtain different humanized antibodies. Affinities of the antibodies were determined by an assay including capturing Fc fragments of the antibodies with anti-human IgG Fc capture (AHC) biosensors using Octet QKe system instrument from Fortebio. For the assay, each of the humanized antibodies and the chimeric antibodies based on the antibodies 9B11, 10B4, and 17A3 was diluted to 4 μg/ml in PBS, and was allowed to flow through the surface of an AHC biosensor (Cat.: 18-0015, PALL) for 300 s. Recombinant human B7-H3-his protein (Accession No.: UniProtKB-Q5ZPR3, 1 aa-461 aa) was used as a mobile phase, and its concentration was 60 nM. The association time was 100 s and the dissociation time was 300 s. When the assay was finished, data from which the response values of blank control had been deducted were fitted to a 1:1 Langmuir binding model using software, and then kinetic constants for antigen-antibody binding were calculated. The light and heavy chain combinations and the affinity constant KD values of the humanized and the mutant antibodies based on the antibodies 9B11, 10B4, and 17A3 are shown in Tables 6-8 respectively.

Row | Kd [nM] | Binder
1 | 0.118 | B1
2 | 0.141 | B2
3 | 0.211 | B3
4 | 0.422 | B4
5 | 0.332 | B5
6 | 0.177 | B6
7 | 0.341 | B7
8 | 0.351 | B8
9 | 0.827 | B9
10 | 0.501 | B10
11 | 0.131 | B11
12 | 0.352 | B12
13 | 0.523 | B13
14 | 0.381 | B14
15 | 0.998 | B15
16 | 0.258 | B16
17 | 0.371 | B17
18 | 0.401 | B18
19 | 0.411 | B19

Row | Kd [nM] | Binder
20 | 0.573 | B20
21 | 0.0328 | B21
22 | 0.422 | B22
23 | 0.299 | B23
24 | 0.771 | B24
25 | 0.401 | B25
26 | 0.462 | B26
27 | 0.299 | B27
28 | 0.172 | B28
29 | 0.431 | B29
30 | 0.541 | B30
31 | 0.699 | B31
32 | 4.52 | B32
33 | 4.51 | B33
34 | 0.107 | B34
35 | 0.139 | B35
36 | 0.121 | B36
37 | 6.28 | B37
38 | 3.07 | B38
